The data set relates to T1, Cathepsin E-activatable 5-ALA prodrug, H-Arg-Gln-Ala-Gly-Phe-Ser-Leu-5-ALA-OH.
T1 sequence: RQAGFSL

Consider “Cathepsin E (purified proteolytic enzyme)”, for which the “proteolytic cleavage of the prodrug, fragments identified by LC-MS (50 pmol enzyme)” value was “Cath E was the only tested protease capable of cleaving the 5-ALA prodrug to two major metabolic fragments”. As to “Cathepsin B (purified proteolytic enzyme)”, the “proteolytic cleavage of the prodrug, LC-MS (50 pmol and 100 pmol enzyme)” value is “A higher concentration of Cath B and D (100 pmol) showed no sign of cleavage of the 5-ALA prodrug at the link between 5-ALA and the rest of the peptide substrate”. In the case of “Cathepsin D (purified proteolytic enzyme)”, the “proteolytic cleavage of the prodrug, LC-MS (50 pmol and 100 pmol enzyme)” value is “A higher concentration of Cath B and D (100 pmol) showed no sign of cleavage of the 5-ALA prodrug at the link between 5-ALA and the rest of the peptide substrate”.

The values are drawn from patent publication US20140227188.
